Reference: the nanobody polyreactivity screen of Harvey et al. (2022)

Assay: yeast display, Sf9 membrane polyspecificity reagent, FACS + sequencing; frameworks hold sequencing errors
Summary of the method: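 Sorting gates, low and high (top ~1%), were placed on anti-HA fluorescence to track expression and on streptavidin fluorescence to track reagent binding. A clone's polyreactivity label is taken from the gate it came out of. The reagent was 10% biotinylated, detergent-solubilized Sf9 membrane, applied for 1 hour at 4 °C to galactose-induced yeast display cells.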

QVQLVESGGGLVQAGGSLRLSCAASGRTFRRNTMGWYRQAPGQEWELVAAISSSGSSTYYADSVKGRFTISRDNAKNTVYLQMKSLKPEDTAVYYCAATGYPRFGYWGQGTQVTVSS
polyreactivity (PSR sort gate): high polyreactivity

QVQLVESGGGLVQAGGSLRLSCAASGRTFGYYVMGWYRQAPGKERELVAAISQSGGSTYYADSVKGRFTISRDNAKNTVYLQMNSLKPEDTAVYYCAKRGWRTFQGGYWGQGTQVTVSS
polyreactivity (PSR sort gate): high polyreactivity

QVQLVESGGGLVQAGGSLRLSCAASGSTFYYYTMGWYRQAPGKERELVATITYRSGNTYYADSVKGRFTISRDNAKNTVYLQMNSLKPEDTAVYYCAALRRVLPYKRYDYWGQGTQVTVSS
polyreactivity (PSR sort gate): high polyreactivity

QVQLVESGGGLVQAGGSLRLSCAASGLIFPRNAMGWYRQAPGKERELVAVISRSGTSTYYADSVKGRFTISRDNAKNTVYLQMNSLKPEDTAVYYCAAAPSQVYRARFYYWGQGTQVTVSS
polyreactivity (PSR sort gate): high polyreactivity

QVQLVESGGGLVQAGGSLRLSCAASGSIFTSYAMGWYRQAPGKERELVAGISWSVGGITYYADSVKGRFTISRDNAKNTVYLQMNSLKPEDTAVYYCAADPEGGLGTIPEDYWGQGTQVTVSS
polyreactivity (PSR sort gate): low polyreactivity

QVQHVESGGGLVQAGGSLRLTCAASGYIFYYNAMGWYRHAPGKEREMVAAINYSGTSTYYADSVKGRFTISRDNAKNTVYLQMNSLKPEDTAVFYCAKVPHYPLAGRLAILDYWGQGSQVTVSS
polyreactivity (PSR sort gate): high polyreactivity

QFQLLESGRGLVQAGGSLRLSCAASGRTYNVNAMGWYRKAPGKERELVASISSGTSTNYADSVKGRFTITRDNAKNTVYLQLNRLNREDTAVYYCNADFVWNGYSGRIRDYYWGQATQVTVSS
polyreactivity (PSR sort gate): low polyreactivity

QVQLVESGGGLVQAGGSLRLSCAASGIIFSDYAMGWYRQAPGKERELVAAITGGGSTYYADSVKGRFTISRDNAKNTVYLQMNRLKPEDTAVYYCNADWARLLIRSTEFDYWGQGTQVTVSS
polyreactivity (PSR sort gate): low polyreactivity

QVQLVDSGGGLVQAGGSLRLTCAASGRIFYYNPMGWNRQAPGIVRELVDAINMISGSTYYADSVKGRFTISRDNAKNSVYFQMNSLKPEDTAVYYCAAQGVDTRIFFSFGFDYWGQGTQVNVSS
polyreactivity (PSR sort gate): high polyreactivity

QVQLVESGGGLVQAGVSLRLSCAASGSTFARYAMGWYRQAPGKERELVAVITQSGSSTYYADSVKGRFTISRDNAKNTVYLQMNSLKPEDTAVYYCAAVGIDYTRYGRYWYSYDYWGQGTQVTVSS
polyreactivity (PSR sort gate): high polyreactivity

QVQLVESGGGLVQAGGSLRLSCAASGITFKRYAMGWYRQAPGKERELVAAINGSGGRTYYADSVKGRFTISRDNAKNTVYLQMNSLKPEDTAVYYCNARHIYPSHYDYWGQGTQVTVSS
polyreactivity (PSR sort gate): high polyreactivity

QFQLVESGGGLVQAGGSLRLSCAASGFIFTNVMGWYRQSPGKERELVAAISGRGTSTYYADSVKGRFTISRDNAKNTVYLQMNSLKPEDTAVYYCAAYFTSRLDYWGQGTQVTVSS
polyreactivity (PSR sort gate): high polyreactivity

QVQLVVSGGGLVQAGGSLRLSCAASGSTFFKYVMGWYIQAPGKERELVAAITWRGGRTYYADSVKGRFTISRDNEKNTVYLQMNSLIPEDTAVYYCAAYDQSLYGRRYDYWGQGTQVTVSS
polyreactivity (PSR sort gate): high polyreactivity

QVQLVESGGGLVQAGGSLSLSCAASGRIFRVYAMGWYRQAPGKERELVAAISSRGGRTYYADSVKGRFTISRDNAKNTVYLQMNSLKPEDTAVYYCAADGRSSSRATSRYDYWGQGTQVTVSS
polyreactivity (PSR sort gate): high polyreactivity

QVQLVESGGGLVQAGGSLRLSCAASGIIFSSYGMGWYRQAPGKERELVAAIRWSTGNTYYADSVKGRFTISRDNAKNTVYLQMNSLKPEDTAVYYCAKRSSWGYHFYYWGQGTQVTVSS
polyreactivity (PSR sort gate): high polyreactivity

QVQLVESGGGLVQAGGSLRLSCAASGRTFAIDAMGWYRQAPGKEREFVAAISWSGGDTYYADSVKGRFTISRDNAKNTVYFQMNRLKPEDTAVYYSAGRDNDYEGRDLQDELDYWGQGTQVTVSS
polyreactivity (PSR sort gate): low polyreactivity

QVQLVESGGGLVKAGGSLRLSCAASGSIITIYAMGWYRQAPGKERDWVATITGGGGSTYYADSVKGRFTISRDNAKNTVYFKMNSLKPEETAVYYCAADSPGWSYTSRSYDYWGQGTQVTVSS
polyreactivity (PSR sort gate): low polyreactivity

QVQLVESGGGLVQAGGSLRLSCAASGRIFRGYVMGWYRQAPGKERELVAAISSSGGSTYYADSVKGRFTISRDNAKNTVYLQMNSLKPEDTAVYYCAAAKWFFYGRKYGKYDYWGQGTQVTVSS
polyreactivity (PSR sort gate): high polyreactivity

QVQLVESGGGLVQAGGSLRLSCAASGSIFRINAMGWYRQAPGKERELVAAISTSGGTTYYADSVKGRFTISRDNAKNTVYLQMNSLKPEDTAVYYCAARRVTSPFGSDSWGQGTQVTVSS
polyreactivity (PSR sort gate): low polyreactivity

QVQLVESGGGLVQAGGSLRLSCAASGRTFPTYAMGWYRQAPGKERELVARITWNGGSTYYADSVKGRFTISRDNAKNTVYLQMNSLKPEDTAVYYCNAAQRIRYYPRYYYGYDYWGQGTQVTVSS
polyreactivity (PSR sort gate): high polyreactivity

QVQLVESGGGLVQAGGSLRLSCAASGSTFTSYAMGWYRQAPGKERELVAAISRSGGRTYYADSVKGRFTISRDNAKYTVYLQMNSLKPEDTAVYYCNAASLSKSDYWGQGTQVTVSS
polyreactivity (PSR sort gate): high polyreactivity

QVQLVDSGGGLVQAGGSLRVSCAASGNTFVTNAMGWSRQAPGKERELDAAITASVTSTYYADSVKGRFTISRDNAKITVYLQLNSLKPEDPAVYYCAAKTYSRKRVRMDYWGQGTQVTVSS
polyreactivity (PSR sort gate): high polyreactivity

QVQLVESGGGLVQAGGSLRLSCAASGSIFRRYDMGWYRQAPGTERELVAAISSSGGSTYYADSVKGRFTISRDNAKNTVYLQMNILKPEDTAVYYCNTASNRYPGWRAEFDYWGQGTQVTVSS
polyreactivity (PSR sort gate): low polyreactivity

QVQLVESGGGLVQAGGSLRLSCAASGRTFWNYAMGWYRQAPGKERELVAVIRFSDVSTYYADSVKGRFTISRDNAKNTVYLQMNSLKPEDTAVYYCAAKGPRRWGSGFDYWGLGTQVTVSS
polyreactivity (PSR sort gate): low polyreactivity

QVQLQERGGGLVQAGGTLRLSCAASGSFSADEDMGWYRQAQGKEREFVAGISVGGNTNYADSVKGRFTISRENAKNTVYLQINSLKPEDTAVYYCAVLQDVYDALDYWAQGTQVTVSS
polyreactivity (PSR sort gate): high polyreactivity

QVQLVDSGGGLVQAGGSLRLSCAASGTTFYSYAMGWYRQAPGKERELVAAISSSGDSTYYADSVKGRFTISRDNAKNTVYLQMNSLKPEDTAVYYCAARKGELWFPQGGYNYWGQGTQVTVLS
polyreactivity (PSR sort gate): low polyreactivity

QVHLVESGGGLVQAGGSLRLSCAASGSTIRRYAMGWYRQAPGTERELVASITNRGGSTYYADSVKGLFTISRDNAKNTFYLQMNSLKPEDTAVYYCAKKGVYGPLNEYWGQGTQVTVSS
polyreactivity (PSR sort gate): high polyreactivity

QVQLVESCGGLVQAGSSLRLSCAASVITFYGYAMGWYRQAPGKERELVADITRGGSTNYADSVKGRFTISRDNAKNTVFLQMNSLKPEDSAVYYCAKSTRRFSWYYSTVGYNYWAQGTQVTVSS
polyreactivity (PSR sort gate): high polyreactivity

QVQLVESGGGLVQAGGSLRLSCAASGGIFDTYAMGWYRQEPGKERELVAAISRRGGNTYYADSVKGRFTISRDNAKNTVYLQMNSLKPEDTAVYYCAAYYHGRMDYWGQGTQVTVSS
polyreactivity (PSR sort gate): high polyreactivity

QVQLVESGGGLVQAGGSLRLSCAASGIIFDPYAMGWYRQAPGKERELVADIDNASSTYYADSVKGRFTISRDNAKNTVYLQMNSLKPEDTAVYYCTADLWYGGEYWGQGTQVTVSS
polyreactivity (PSR sort gate): low polyreactivity

QVQLVESGGGLVQAGGSLRLSCAASGLIIPRYAMGWYRQAPGKERELVAAITYTGGSTYYADSVKGRFTISRDNAKNTVYLQMNSLKPEDTSVYYCAVVVGYTDSPYSYDYWGQGTQVTVSS
polyreactivity (PSR sort gate): low polyreactivity

QVQLVESGGGLVQAGGSLRLSCAASGFTFWEYAMGWYRQAPGKERELVAAISRGTSTYYADSVKGRFTISRDNAKNTVYLQMNSLKPEDTAVYYCAAAPSYYPARHGYWGQGTQVTVSS
polyreactivity (PSR sort gate): low polyreactivity

QVQLVESGGGLVQAGGSLRLSCAASGRIFLINAMGWYRQAPGKESEFVAAIRTGGNTYYADSVKGRFTLSRDNAKNTVYLQMNSLKPEDTAVYYCAADRIYPYYRWSGAHRSDVDYWGQGTQVTVSS
polyreactivity (PSR sort gate): low polyreactivity

QVQLVDSGGGLVQAGGSLRLICAASGSISSYYAMVWYRQAPGKERELVAAITSGGRTYYADSVKGRFTISRDNAKNTVYLQMNSLKPEDTAVYYCNARTARNPIKGRASYYWGQGTQVTVSS
polyreactivity (PSR sort gate): high polyreactivity

QVQLVESGGGLVQARVSLRLSCAASGITFRYYAMGWYRQAPGKERELVAAITRGGGSTYYADSVKGRFTISRDNAKNTVYLQMNSLKPEDTAVYYCAAAGSRYAWGYGYWGQGTQVTVSS
polyreactivity (PSR sort gate): high polyreactivity

QVQLVESGGGLVQAGGSLRLSCAASGRIFAENAMGWYRQAPGKERELVAAISRTGSRTYYADSVKGRFTISRDNAKNTVYLQMNSLKPEDSAVYYCNKVSAQDEFRSRGYWGQGTQVTVSS
polyreactivity (PSR sort gate): high polyreactivity

QVQLVGSGGGLVQAGGSLRLSCAASGRTFDRNTMGWYRQAPGKERELVAAISSSGGSTYYADSVKGRFTISRDNAKNTVYLQMNSLKPEDTAVYYCAVLSRQYFRYGYDYWGQGTQVTVSS
polyreactivity (PSR sort gate): high polyreactivity

QVQLVESGGGLVQAGGSLRLSCAASGSIFGRNAMGWYRQAPGKERELVAAIRTRGGSTYYADSVKGRFTNSRDIAKNSVYLQMNSLKPEDTAVYYCAAPGGGKEVDYWGQGTQVTVSS
polyreactivity (PSR sort gate): low polyreactivity

QVQIVESGGGLVQAGGSLRLSCAASGSIFLRNAMGWYRQAPGKERELVASITWNGASTSYADSVKGRFTISRDNAKNTVYLQMNSLKPEDTAVYYCAAVTVQDSNLNYGYWGQGTQVTVSS
polyreactivity (PSR sort gate): low polyreactivity

QVQLVESGGGLVQAGGSLRLRCAASGLIFPVYAMGWYRQEPGKEREFVAAITYDGGNTYYADSVKGRFTISRDNAKNTVYLQMNSLKPEDTAVYYCNRRYPGPDSFEHYYYYRYDYWGQGTQVTVSS
polyreactivity (PSR sort gate): low polyreactivity

QVQLVESGGGLVQAGGSLRLSCAASGSNFYYKAMGWYRQAPGKERELVAAITSGDSTNYADSVKGRFTISRDNAKNTVYLQMNSLKPEDTAVYYCAADYLAALTYYRTYDYWGQGTQVTVSS
polyreactivity (PSR sort gate): low polyreactivity

QVQLVESGGGLVQAGGSLRLSCAASGRIFTWNGMGWYRQATGKERELVAAITSGGRTYADSVKGRFTISRDNAKNTVYLQMNSLKPEDTAVYYCAADVRRRYIWYDYWGQGTQVTVSS
polyreactivity (PSR sort gate): high polyreactivity

QVQLVESGGGLVQAGGRLRLSCAASGIIVGLYTMGWYRQARGKERELVAAISDSGGRTYYADSVKGRFTISRDNVKNTVYLQMNSLKPEDTAVYYCATRWPHYGGYYYWGQGTQVTVSS
polyreactivity (PSR sort gate): high polyreactivity
